Measurements published in article PMC11437124 (Nature Communications, 2024).

B1: R18-12-19 (antibody, V domains shown)
VH: AVQLVESGGGLVQPKESLKISCAASGFTFSNAAMYWVRQAPGKGLEWVARIRTKPNNYATYYTDSVKGRFTISRDDSKSMVYLQMDNLKTEDTAMYYCTAEGSSRNWFAYWGQGTLVTVSS
VL: DIVMTQSPSSLAVSAGETVTIDCKSSQSLLYSGNQKTYLAWYQQKPGQSPKLLIYWASTRQSGVPDRFIGSGSGTDFTLTISSVQAEDLAIYYCQQYYDTPLTFGSGTKLEIK
B2: R18-13-31 (antibody, V domains shown)
VH: AVQLVESGGGLVQPIESLKISCAASGFTFTNAAMYWVRQAPGKGLEWIARIRTKPNDYATYYADSVKGRFTISRDDSESVVYLQMDNLKTEDTATYYCTAAWDYYSSAFDYWGQGVMVTVSS
VL: DIVMTQSPSSLAVSAGETVTIDCKSSQSLLYSGNQKTYLAWYQQKPGQSPKLLIYWASTRQSGVPDRFIGSGSGTDFTLTISSVQAEDLAIYYCQQYYDTPLTFGSGTKLEIK
B3: R18-12-25 (antibody, V domains shown)
VH: AVQLVESGGGLVRPQESLKISCAASGFTFRDTAMYWVRQAPGKGLEWVARIRTKPNDYATYFADSVKGRFTISRDDSKSMVYLQMDTLKTEDTAMYYCTAPINNWDWFAYWGQGTLVTVSS
VL: DIVMTQSPSSLAVSAGETVTIDCKSSQSLLYSGNQKTYLAWYQQKPGQSPKLLIYWASTRQSGVPDRFIGSGSGTDFTLTISSVQAEDLAIYYCQQYYDTPLTFGSGTKLEIK
B4: R18-13-29 (antibody, V domains shown)
VH: AVQLVESGGGLVQPKESLKVSCAASGFTFSNADIYWVRQAPGKGLEWVARIRTKPNNYATYYGDSVKGRFTISRDDSKSMVYLQMDNLKTEDTAMYYCTAGEGLWVNYFDYWGQGVMVTVSS
VL: DIVMTQSPSSLAVSAGETVTIDCKSSQSLLYSGNQKTYLAWYQQKPGQSPKLLIYWASTRQSGVPDRFIGSGSGTDFTLTISSVQAEDLAIYYCQQYYDTPLTFGSGTKLEIK
B5: R18-12-23 (antibody, V domains shown)
VH: AVQLVESGGGLVQPKESLKISCAASAFSFSNVAMYWVRQAPGKGLEWIARIRTKPNNYATYYADSVKGRFTISREDSKSMVYLQMDNLKTEDTATYYCTADNYPGGGFRYWGQGTLVTVSS
VL: DIVMTQSPSSLAVSAGETVTIDCKSSQSLLYSGNQKTYLAWYQQKPGQSPKLLIYWASTRQSGVPDRFIGSGSGTDFTLTISSVQAEDLAIYYCQQYYDTPLTFGSGTKLEIK
B6: R18-13-35 (antibody, V domains shown)
VH: AVQLVESGGGLVQPRESLKISCAASGFTFSNAAMYWVRQAPGKGLEWVARIRTKANNYATNYADSLKGRFIISRDDSKSVVYLQMGNLKPEDTAMYYCTAGDTMGPHWFVYWGQGTLVTVSS
VL: DIVMTQSPSSLAVSAGETVTIDCKSSQSLLYSGNQKTYLAWYQQKPGQSPKLLIYWASTRQSGVPDRFIGSGSGTDFTLTISSVQAEDLAIYYCQQYYDTPLTFGSGTKLEIK
B7: R18-12-24 (antibody, V domains shown)
VH: AVQLVESGGGLVQPKESLKISCAASGFTFSNAAMYWVRQAPGKGLEWVARIRTKPNNYATYYADSVKGRFTISRDDSKSMVYLQMDNLKTEDTAMYYCTADYSSYIRFAYWGQGTLVTVSS
VL: DIVMTQSPSSLAVSAGETVTIDCKSSQSLLYSGNQKTYLAWYQQKPGQSPKLLIYWASTRQSGVPDRFIGSGSGTDFTLTISSVQAEDLAIYYCQQYYDTPLTFGSGTKLEIK
B8: R18-13-27 (antibody, V domains shown)
VH: AVQLVESGGGLVQPKESLKISCAASGFTFSNAAMYWVRQAPGKGLEWVARIRTKPNYHATYYADSVKGRFTISRDDSKSMVYLQMDNLKAEDTAIYYCAASVLYTADSLDYWGQGVMVTVSS
VL: DIVMTQSPSSLAVSAGETVTIDCKSSQSLLYSGNQKTYLAWYQQKPGQSPKLLIYWASTRQSGVPDRFIGSGSGTDFTLTISSVQAEDLAIYYCQQYYDTPLTFGSGTKLEIK
B9: R19-11-36 (antibody, V domains shown)
VH: AVQLVESGGGLVQPKESLKISCAAAGFTFTSAAMYWVRQAPGKGLEWIARIRTKADNIATNYADSVKGRFTISRDDSKNMVYLQMDDLKTEDTAMYYCTAGITTGGFEYWGQGVMVTVSS
VL: DIVMTQSPSSLAVSAGETVTIDCKSSQSLLYSGNQKTYLAWYQQKPGQSPKLLIYWASTRQSGVPDRFIGSGSGTDFTLTISSVQAEDLAIYYCQQYYDTPLTFGSGTKLEIK
B10: R18-13-30 (antibody, V domains shown)
VH: AVQLVESGGGLVQPKESLKVSCAASGFTFSHAAMYWVRQAPGKGLEWVARITTEPNNYATNYADSVKGRFTISRDDSKSMVFLQMDNMKTEDTAMYYCTAEVRVYPYYFDYWGQGVMVTVSS
VL: DIVMTQSPSSLAVSAGETVTIDCKSSQSLLYSGNQKTYLAWYQQKPGQSPKLLIYWASTRQSGVPDRFIGSGSGTDFTLTISSVQAEDLAIYYCQQYYDTPLTFGSGTKLEIK
B11: R18-13-28 (antibody, V domains shown)
VH: AVQLVESGGGLVQPKESLKISCAASGFTFSNAAMYWVRQAPGKGLEWVARIRTKTNNYATNYADSVKGRFTISRDDSKSMVYLQMDNLKTEDTAMYYCSAARGGWYLWLDYWGQGVMVTVAS
VL: DIVMTQSPSSLAVSAGETVTIDCKSSQSLLYSGNQKTYLAWYQQKPGQSPKLLIYWASTRQSGVPDRFIGSGSGTDFTLTISSVQAEDLAIYYCQQYYDTPLTFGSGTKLEIK
B12: R18-13-32 (antibody, V domains shown)
VH: AVQLVESGGGLVQPKESLKISCAASGFTFSYAAMYWVRQAPGKGLEWVARIRSKPNNYATYYADSVKGRFTISRDDSKSMVYLQMDNLKTEDTAMYYCTAPYYYDGSPFEYWGQGVMVTVSS
VL: DIVMTQSPSSLAVSAGETVTIDCKSSQSLLYSGNQKTYLAWYQQKPGQSPKLLIYWASTRQSGVPDRFIGSGSGTDFTLTISSVQAEDLAIYYCQQYYDTPLTFGSGTKLEIK
B13: R18-12-22 (antibody, V domains shown)
VH: AVQLVESGGGLVQPKESLKISCAASGFTFSNAAIYWVRQAPGKGLEWVARIRTKPNNYATYYADSVKGRFTISRDDSKSMVYLQMDNLKTEDTAMYYCTAGYYSGGPFAYWGQGTLVTVSS
VL: DIVMTQSPSSLAVSAGETVTIDCKSSQSLLYSGNQKTYLAWYQQKPGQSPKLLIYWASTRQSGVPDRFIGSGSGTDFTLTISSVQAEDLAIYYCQQYYDTPLTFGSGTKLEIK
B14: R18-12-21 (antibody, V domains shown)
VH: AVQLVESGGGLVQPKESLKLSCAASGFTFSDAAMYWVRQAPGKGLEWVARIRTKPNNYATYYADSVKGRFTISRDDSKSMVYLQMDNLKTEDTAMYYCTALFLIVAPFAYWGQGTLVTVSS
VL: DIVMTQSPSSLAVSAGETVTIDCKSSQSLLYSGNQKTYLAWYQQKPGQSPKLLIYWASTRQSGVPDRFIGSGSGTDFTLTISSVQAEDLAIYYCQQYYDTPLTFGSGTKLEIK
B15: R18-12-20 (antibody, V domains shown)
VH: AVQLVESGGGLVQPKESLKISCAASGFTLSTVAMYWVRQAPGKGLEWVARIRTKPNNYAIYYADSVKGRFTISRDDSKSMVYLQMDNLKTEDTAMYYCTAPGIIRAPFAYWGQGTLVTVSS
VL: DIVMTQSPSSLAVSAGETVTIDCKSSQSLLYSGNQKTYLAWYQQKPGQSPKLLIYWASTRQSGVPDRFIGSGSGTDFTLTISSVQAEDLAIYYCQQYYDTPLTFGSGTKLEIK

These binders were tested against human TREM2 extracellular domain (ECD) (Homo sapiens, UniProt Q9NZC2).
Chain of human TREM2 extracellular domain (ECD) (Q9NZC2 19-174): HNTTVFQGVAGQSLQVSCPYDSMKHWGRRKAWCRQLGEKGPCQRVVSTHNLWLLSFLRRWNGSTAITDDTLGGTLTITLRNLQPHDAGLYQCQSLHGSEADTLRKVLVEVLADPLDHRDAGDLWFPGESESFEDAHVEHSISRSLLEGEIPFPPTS

Binding result, binds:
B1
B2
B3
B4
B5
B6
B7
B8
B9
B10
B11
B12
B13
B14
B15
